From article PMC10786891, “Massively parallel profiling of RNA-targeting CRISPR-Cas13d” come the findings set out here.

Where a chain is given by its changes, count along the chain named. In names and notes the source's numbering stands.

What is called Kd is a measure of binding affinity in units of concentration. The low end stands for higher affinity, the high end for lower affinity.

T1: EsCas13d, nuclease-dead (Eubacterium siraeum, UniProt B0MS50, R295A;H300A;R849A;H854A)
T1 sequence: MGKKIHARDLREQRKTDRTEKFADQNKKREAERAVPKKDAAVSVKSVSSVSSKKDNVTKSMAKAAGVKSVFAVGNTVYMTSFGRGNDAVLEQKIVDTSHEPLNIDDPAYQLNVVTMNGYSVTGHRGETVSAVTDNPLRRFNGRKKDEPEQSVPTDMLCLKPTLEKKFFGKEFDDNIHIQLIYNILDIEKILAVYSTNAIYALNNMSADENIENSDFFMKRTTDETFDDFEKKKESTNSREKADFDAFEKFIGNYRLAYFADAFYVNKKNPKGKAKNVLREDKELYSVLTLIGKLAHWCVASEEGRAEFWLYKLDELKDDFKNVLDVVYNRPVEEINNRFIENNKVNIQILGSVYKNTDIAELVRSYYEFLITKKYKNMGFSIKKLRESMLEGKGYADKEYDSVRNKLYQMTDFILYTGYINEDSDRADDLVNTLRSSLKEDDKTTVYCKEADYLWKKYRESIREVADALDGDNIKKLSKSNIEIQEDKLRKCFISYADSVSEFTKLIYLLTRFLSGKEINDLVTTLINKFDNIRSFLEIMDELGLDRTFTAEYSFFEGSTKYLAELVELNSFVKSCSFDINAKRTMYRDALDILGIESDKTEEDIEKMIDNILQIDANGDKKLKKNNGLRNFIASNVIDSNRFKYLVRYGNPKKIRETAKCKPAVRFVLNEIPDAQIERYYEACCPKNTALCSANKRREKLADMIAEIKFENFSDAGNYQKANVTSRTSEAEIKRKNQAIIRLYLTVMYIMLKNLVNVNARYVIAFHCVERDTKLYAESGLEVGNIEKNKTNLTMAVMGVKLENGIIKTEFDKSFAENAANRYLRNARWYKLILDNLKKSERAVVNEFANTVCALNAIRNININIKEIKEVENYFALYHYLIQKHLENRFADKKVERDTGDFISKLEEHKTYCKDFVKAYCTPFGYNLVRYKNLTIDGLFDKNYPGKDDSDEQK

B1: target 1 MT 5'PFS UUG 3'PFS AGU (mixed)
RNA 1: CACCCGUGCAAAAAUGCAGGGGUCUAAAACUGAGCGGAUAACCUCUCUAUGG
RNA 2: GGGAAUGGAUCCACAUCUACGAAUUCUUGCCAUAGAGAGGUUAUCCGCUCAAGUAGAUCGGAAGAGCACACGU
B2: target 1 MT 5'PFS GUU 3'PFS CUG (mixed)
RNA 1: B1 RNA 1
RNA 2: B1 RNA 2 with U27G, G29U, A52C, G53U, U54G
B3: target 1 MT 5'PFS UUA 3'PFS UAU (mixed)
RNA 1: B1 RNA 1
RNA 2: B1 RNA 2 with G29A, A52U, G53A
B4: target 1 MT 5'PFS CAA 3'PFS ACA (mixed)
RNA 1: B1 RNA 1
RNA 2: B1 RNA 2 with U27C, U28A, G29A, G53C, U54A
B5: target 1 MT 5'PFS AGA 3'PFS UCG (mixed)
RNA 1: B1 RNA 1
RNA 2: B1 RNA 2 with U27A, U28G, G29A, A52U, G53C, U54G
B6: target 1 MT 5'PFS UCG 3'PFS AGU (mixed)
RNA 1: B1 RNA 1
RNA 2: B1 RNA 2 with U28C
B7: target 1 MT 5'PFS GUA 3'PFS CCA (mixed)
RNA 1: B1 RNA 1
RNA 2: B1 RNA 2 with U27G, G29A, A52C, G53C, U54A
B8: target 1 MT 5'PFS AGA 3'PFS UCC (mixed)
RNA 1: B1 RNA 1
RNA 2: B1 RNA 2 with U27A, U28G, G29A, A52U, G53C, U54C
B9: target 1 MT 5'PFS ACA 3'PFS CGG (mixed)
RNA 1: B1 RNA 1
RNA 2: B1 RNA 2 with U27A, U28C, G29A, A52C, U54G
B10: target 1 MT 5'PFS UAG 3'PFS UCG (mixed)
RNA 1: B1 RNA 1
RNA 2: B1 RNA 2 with U28A, A52U, G53C, U54G
B11: target 1 MT 5'PFS GUU 3'PFS CUC (mixed)
RNA 1: B1 RNA 1
RNA 2: B1 RNA 2 with U27G, G29U, A52C, G53U, U54C
B12: target 1 MT 5'PFS AGA 3'PFS UCU (mixed)
RNA 1: B1 RNA 1
RNA 2: B1 RNA 2 with U27A, U28G, G29A, A52U, G53C
B13: target 1 MT 5'PFS GUA 3'PFS CCC (mixed)
RNA 1: B1 RNA 1
RNA 2: B1 RNA 2 with U27G, G29A, A52C, G53C, U54C
B14: target 1 insA 3' of 17,insC 3' of 9 (mixed)
RNA 1: B1 RNA 1
RNA 2: GGGAAUGGAUCCACAUCUACGAAUUCGUACCAUAGAAGAGGUUACUCCGCUCACCGAGAUCGGAAGAGCACACGU
B15: target 1 MT 5'PFS GGG 3'PFS GCA (mixed)
RNA 1: B1 RNA 1
RNA 2: B1 RNA 2 with U27G, U28G, A52G, G53C, U54A
B16: target 1 MT 5'PFS AGA 3'PFS UCA (mixed)
RNA 1: B1 RNA 1
RNA 2: B1 RNA 2 with U27A, U28G, G29A, A52U, G53C, U54A
B17: target 1 MT 5'PFS GGG 3'PFS GCU (mixed)
RNA 1: B1 RNA 1
RNA 2: B1 RNA 2 with U27G, U28G, A52G, G53C
B18: target 1 MT 5'PFS CAA 3'PFS ACU (mixed)
RNA 1: B1 RNA 1
RNA 2: B1 RNA 2 with U27C, U28A, G29A, G53C
B19: target 1 MT 5'PFS AGA 3'PFS ACA (mixed)
RNA 1: B1 RNA 1
RNA 2: B1 RNA 2 with U27A, U28G, G29A, G53C, U54A
B20: target 1 MT 5'PFS UAG 3'PFS UCA (mixed)
RNA 1: B1 RNA 1
RNA 2: B1 RNA 2 with U28A, A52U, G53C, U54A
B21: target 1 MT 5'PFS AGA 3'PFS ACG (mixed)
RNA 1: B1 RNA 1
RNA 2: B1 RNA 2 with U27A, U28G, G29A, G53C, U54G
B22: target 1 MT 5'PFS AGA 3'PFS ACC (mixed)
RNA 1: B1 RNA 1
RNA 2: B1 RNA 2 with U27A, U28G, G29A, G53C, U54C
B23: target 1 insA 3' of 19,insG 3' of 6 (mixed)
RNA 1: B1 RNA 1
RNA 2: B14 RNA 2 with G35A, A36G, C45U, U46C, C48G
B24: target 1 MT 5'PFS AGA 3'PFS ACU (mixed)
RNA 1: B1 RNA 1
RNA 2: B1 RNA 2 with U27A, U28G, G29A, G53C
B25: target 1 MT 5'PFS UCG 3'PFS AGA (mixed)
RNA 1: B1 RNA 1
RNA 2: B1 RNA 2 with U28C, U54A
B26: target 1 MT 5'PFS UCG 3'PFS CGA (mixed)
RNA 1: B1 RNA 1
RNA 2: B1 RNA 2 with U28C, A52C, U54A
B27: target 1 MT 5'PFS ACG 3'PFS CAC (mixed)
RNA 1: B1 RNA 1
RNA 2: B1 RNA 2 with U27A, U28C, A52C, G53A, U54C
B28: target 1 MT 5'PFS GUU 3'PFS CUA (mixed)
RNA 1: B1 RNA 1
RNA 2: B1 RNA 2 with U27G, G29U, A52C, G53U, U54A
B29: target 1 C6U,C7U (mixed)
RNA 1: B1 RNA 1
RNA 2: B1 RNA 2 with U27G, G29A, C45U, C46U, A52C, G53C, U54G
B30: target 1 MT 5'PFS UAG 3'PFS UCC (mixed)
RNA 1: B1 RNA 1
RNA 2: B1 RNA 2 with U28A, A52U, G53C, U54C
B31: target 1 MT 5'PFS GUG 3'PFS GCG (mixed)
RNA 1: B1 RNA 1
RNA 2: B1 RNA 2 with U27G, A52G, G53C, U54G
B32: target 1 MT 5'PFS UCG 3'PFS CGU (mixed)
RNA 1: B1 RNA 1
RNA 2: B1 RNA 2 with U28C, A52C
B33: target 1 MT 5'PFS CAA 3'PFS ACG (mixed)
RNA 1: B1 RNA 1
RNA 2: B1 RNA 2 with U27C, U28A, G29A, G53C, U54G
B34: target 1 MT 5'PFS GUA 3'PFS CCU (mixed)
RNA 1: B1 RNA 1
RNA 2: B1 RNA 2 with U27G, G29A, A52C, G53C
B35: target 1 MT 5'PFS GUG 3'PFS GCC (mixed)
RNA 1: B1 RNA 1
RNA 2: B1 RNA 2 with U27G, A52G, G53C, U54C
B36: target 1 MT 5'PFS UGC 3'PFS AAG (mixed)
RNA 1: B1 RNA 1
RNA 2: B1 RNA 2 with U28G, G29C, G53A, U54G
B37: target 1 insA 3' of 8,insA 3' of 3 (mixed)
RNA 1: B1 RNA 1
RNA 2: GGGAAUGGAUCCACAUCUACGAAUUCGUACCAUAGAGAGGUUAUACCGCUACACCGAGAUCGGAAGAGCACACGU

The data set deals with T1, EsCas13d, nuclease-dead. Kind of data set: crRNA (strand 1, pre-loaded); Mg2+; 40 mM Tris-HCl pH 7.5, 150 mM NaCl, 6 mM MgCl2, 1 mM DTT, 0.1% Tween-20, 0.2 mg/ml BSA; 25 C; 10 min per concentration, then washed. Conditions: tags: His6-TwinStrep-SUMO cleaved; N-terminal SNAP kept (SNAP-Surface 488); label: 3' end held by stalled T7 RNA polymerase.
In the case of B1, the Kd came out at 84 ± 33 nM. Molecule B2 showed a Kd of 12.8 ± 1.4 nM. Next, B3: 12.7 ± 1.35 nM. The value for B4 was ~27 nM; that for B5 was 47 ± 17.5 nM; that for B6 was 50 ± 24.5 nM. The value for B7 was 19.6 ± 2.4 nM. B8 gave a Kd of 49.5 ± 19 nM. Next, B9: ~70 nM; B10: 20.1 ± 3.45 nM; B11: 21.5 ± 4 nM. Next, B12: 42 ± 15.5 nM. The value for B13 was 12.6 ± 2.1 nM. The molecule B14 showed a Kd of 12.3 ± 0.6 nM. The value for B15 was 36 ± 13 nM; that for B16 was 61 ± 23 nM. Next, B17: 7.45 ± 1.45 nM. For B18, the Kd is ~20.5 nM. Next, B19: 56 ± 18 nM. The value for B20 was 25 ± 5 nM; that for B21 was 29.5 ± 7 nM; that for B22 was 47 ± 16 nM. The value for B23 was 25.7 ± 2.3 nM. For B24, the Kd is ~32 nM. B25 returned a Kd of 39 ± 11 nM. The value for B26 was 51 ± 22.5 nM; that for B27 was ~36 nM; that for B28 was 17.6 ± 3.25 nM. The value for B29 was 6.3 ± 0.5 nM. The value for B30 was 63.5 ± 20 nM. Consider B31, for which the Kd worked out at 14.4 ± 2 nM. The value for B32 was ~100 nM; that for B33 was 15 ± 5.5 nM. B34 showed a dissociation constant (Kd) of 7.3 ± 0.8 nM.

B35 came in with a dissociation constant (Kd) of 12.7 ± 1.6 nM. The value for B36 was 76 ± 33.5 nM; that for B37 was 10.4 ± 0.4 nM.
